Results reported in the supplement of paper PMC12042874.
± gives the uncertainty stated by the source.

Experiment: amyloid nucleation score (Sup35N fusion, yeast selection) (log enrichment); library NNK1; higher = more nucleation; inactive = no reads after selection
Outline: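 Plasmid inserts were Illumina-sequenced at input and output from psi-negative yeast expressing Sup35N fused to peptides of 20 random codons. The yeast were induced with 100 μM copper sulfate for 24 hours and grown 7 days at 30°C on medium lacking adenine and uracil, and sequences with under 100 input reads were excluded. Nucleation score is the DiMSum log enrichment of output over input reads, centred on the mode score of non-aggregating sequences.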

| Substance | amyloid nucleation score |
| --- | --- |
| SVWCSFFVNAADHNIYRTIT | 1.11 ± 0.15 |
| CSYQNCLVN | -0.795 ± 0.29 |
| LYYNASTAIELNLEYSIKWL | 0.17 ± 0.8 |
| PKNGGQTMAYK | -0.665 ± 0.6 |
| FVSSSKLIGCLVRHQKMANR | 0.258 ± 0.59 |
| FAVSRVEMNLGL | -0.117 ± 0.34 |
| AVSDVTVIRRCMFIG | 0.448 ± 0.47 |
| NQMGRRQRVLRSSDSRPTVL | -0.114 ± 0.74 |
| QWCNIVGSMIVDITQELML | 1.75 ± 0.25 |
| WFFAAVWVLEFYEFR | -0.432 ± 0.3 |
| MRLSNYFTGRDWGF | -0.046 ± 0.43 |
| RYHSMYTNSNTRGFGSSLQL | inactive |
| LVSRRSGHKYYGTTTDCCKN | inactive |
| ADACVRFLRGYYFNGFPMRW | 1.03 ± 0.9 |
| FTWWHIRGCGCCVACEGHRS | 0.05 ± 0.65 |
| CVFRSYWVCLWSDNNGDVR | 8.325 ± 0.07 |
| NNLFYEIRM | 1.92 ± 0.17 |
| DIERMKVPELFCLLSLDTGP | -0.376 ± 1.7 |
| MRYLNFLCHCVVVYVVMSAS | 2.16 ± 0.57 |
| VFTHAFNMLCVFYTSQGLKR | 5.35 ± 0.1 |
| YLHWTQEDLRGNILGWSMWS | 2.32 ± 0.16 |
| SELPVTGWLLIFLGELTWS | -0.88 ± 1.3 |
| IYCEEFMLEMTSRIRV | -0.976 ± 0.47 |
| LDSCPAL | 0.47 ± 0.57 |
| CLILTRCVSYGRPMTACLVL | 0.16 ± 0.56 |
| WANRVCMCLRTSFYHL | 0.004 ± 0.62 |

| Substance | amyloid nucleation score |
| --- | --- |
| TGDIISRSLSASIEQNFSSN | 0.443 ± 0.2 |
| KETSGYRFYRMANLP | -0.21 ± 1.2 |
| PLSVNLKYVYNLVVDLFGLP | 2.61 ± 0.19 |
| YTEETYKLCVWMSDRSIRLN | 0.001 ± 0.85 |
| SITVKKES | 0.254 ± 0.62 |
| ISRISVSEEFKGCMGREWVT | 1.1 ± 0.52 |
| KLIPCLLVITINLGHKATLS | 0.482 ± 0.39 |
| SLVLSYRVASNIKNPMTLDY | 1.24 ± 0.15 |
| HVVKCGHYLRRVRNMGKLEF | -0.163 ± 0.79 |
| KLYGTRFPQFSRSVNEYC | 0.111 ± 0.36 |
| LVRYLCVPSFGKAGYDGEGE | -0.86 ± 0.79 |
| QGVGSDVTSIYTV | -0.884 ± 2.4 |
| SFRCDVD | -0.217 ± 0.55 |
| VLYGGDLALLSFDTGHPLFL | 0.297 ± 0.38 |
| KILRYSTTGSSELEWWNMRS | 0.069 ± 0.49 |
| VVSRRVYDYTMDGLWGQ | 0.44 ± 0.36 |
| VGSSNTTNKYPGFCCWRFDG | 0.444 ± 0.53 |
| KSKRWELLPFEVRAARAVGQ | -0.024 ± 0.3 |
| SCHIKK | 0.12 ± 0.39 |
| WVSANKSNCQMYSGTQTPCE | inactive |
| MDLNEQTEYLLLASRFPMYY | inactive |
| HFVRFRRAMSRHGRVAST | -0.979 ± 0.75 |
| DKPIV | -0.09 ± 0.88 |
| THFRMGKSFVICLGLASYPL | 0.374 ± 0.9 |
| IGITRILFVFFIDTATIKNG | -0.855 ± 0.43 |
| HDFPIR | inactive |

| Substance | amyloid nucleation score |
| --- | --- |
| LRGFESTRETVLGSMQQWCL | 1.03 ± 0.56 |
| WYDAK | 0.286 ± 0.36 |
| KSYSMMMSMMGNRMWVKRLV | -0.02 ± 0.5 |
| DYGDYCAKWTQSYNALTVRF | 0.594 ± 0.58 |
| SDLLCLLVKDIIYFFVYLHS | 1.96 ± 0.53 |
| YVDVSSS | 0.834 ± 0.61 |
| TFSEFAVIDIRYIWGTLFVS | 0.762 ± 0.38 |
| FKVSVALSWDDVSQFGYGYG | 0.117 ± 0.65 |
| RIENNFLSTSFVFSCLIGNM | 5.88 ± 0.07 |
| NVAFYVTVV | -0.049 ± 0.26 |
| DNDYDLDPVGIRVHLFNQ | inactive |
| IGYRYQSMLGCEGGRWWWVV | 0.45 ± 0.58 |
| TTRMRRRY | 1.89 ± 0.56 |
| NQMVWMVELWRTVDCVVLNV | -0.17 ± 0.34 |
| KKDTDRSIVFVSLYSPDSKA | -0.064 ± 0.5 |
| CKSGDLSECCRIWHRWA | 0.048 ± 0.27 |
| VYLSRHTNRG | 1.53 ± 0.43 |
| SKVIESDSVCYILHRFKNQC | 1.09 ± 0.17 |
| LSTVRLFILEPLYGGPPRNG | -1.4 ± 1.4 |
| VSYMQSVVHCGPKARCKWRC | 0.964 ± 0.67 |
| IVFFQEDGSWAEWFVGEVLT | 0.557 ± 0.42 |
| TNTLLTPGCGINAIGVALYV | -0.628 ± 0.3 |
| HSAFSWNYRDSFVEGCSSHG | 0.018 ± 0.3 |
| AQAVLQLETRTIKIYRDGPK | -1.08 ± 2.7 |
| SNTSMHRLLLIIVGKNMNVV | 0.261 ± 1 |
| VGNMRYL | -0.332 ± 0.5 |

| Substance | amyloid nucleation score |
| --- | --- |
| IMCISFVFFNLKGYGGTG | 3.11 ± 0.082 |
| DTPWWGSGALVFKLCACSAY | -0.341 ± 0.59 |
| DSYILRGNSVLGGGTFSVIR | 0.062 ± 0.53 |
| TFLSL | 0.068 ± 0.24 |
| ALRAP | -0.383 ± 0.62 |
| KMSNCWLF | -0.881 ± 0.55 |
| DALWKVFKDWLGGADQRGFP | 0.29 ± 0.78 |
| LVCVGTGSGMFEHRAIMMLV | -0.174 ± 0.51 |
| YCVVFYP | 1.66 ± 0.61 |
| KASCVVLAMLWLVLALGEPG | 0.116 ± 0.81 |
| EAGQLLL | inactive |
| CVFGYCVALHF | 6.18 ± 0.073 |
| HYQERC | -0.604 ± 0.34 |
| FLLHF | -0.177 ± 0.62 |
| IHVSENDMELVWLYGVVRI | -0.708 ± 0.9 |
| ACFEFKLGTFRLGAALNYPG | 1.03 ± 0.31 |
| LQFGWFMIYLIKFSPNLRGN | -1.18 ± 1.7 |
| MRIIQCRRLFKVCCCFSVCL | 2.28 ± 0.14 |
| FENDWNLINLLGF | 1.49 ± 0.55 |
| YWSQTRFYSMALSRSDSERT | 0.135 ± 0.27 |
| YMGPVV | -0.313 ± 0.33 |
| MESLIRFSPASKIVISPFTV | 0.748 ± 1.2 |
| CHGCLGG | -0.312 ± 1.5 |
| GTATLSHTCKHTPLRDTRLV | -0.16 ± 0.32 |
| LGSMSTWVDRLRVANQVVVC | 0.785 ± 0.77 |
| HVSACRNKIHLWSRTHLSGE | 0.83 ± 0.5 |

| Substance | amyloid nucleation score |
| --- | --- |
| GMSVNVWMYSSLGVFCLIYV | -0.107 ± 0.2 |
| TNRKIQSLPTVCVCIRGSSG | 2.95 ± 0.11 |
| HGCKYAKGASDLYDIMCFCW | 0.602 ± 0.38 |
| WFRYYYLFNRVRTFRERTNF | 0.094 ± 1.4 |
| FGVNCNYCLILVQCMC | 2.35 ± 0.52 |
| FYAVVEQIKFMRSLNLNLLN | -0.08 ± 0.36 |
| VLEDDSDWGSRFVRRGYIKT | 1.15 ± 0.61 |
| MYYSIGWKR | 1.48 ± 0.8 |
| ASGSI | -1.32 ± 2.4 |
| EPMMLY | 0.333 ± 0.28 |
| ISIPYICIMVFFFDAVRVDQ | 0.49 ± 0.34 |
| VLGKCVNR | -0.366 ± 0.21 |
| YCWCINNH | 6.26 ± 0.084 |
| VDNDLGQLPGMW | -0.561 ± 1.7 |
| DGSGRGRALTVTIDWAVQLV | 0.26 ± 0.88 |
| GKFVFWWVRSVYDQMAVPGM | -0.546 ± 1.1 |
| WSDHDCIRPNFKYCMIRGRS | 0.531 ± 0.3 |
| APQSRFNHEYFFENIRRVVV | inactive |
| FGVSVLCSEWGTPRFVCWVN | -0.6 ± 0.43 |
| RRGSNDDSYHRRQVDRKPMA | 0.166 ± 0.66 |
| CFNLALLRVLAGTKLYSFMG | 0.64 ± 0.35 |
| MMRTEIARVLCLSLF | 0.077 ± 0.37 |
| PTCQGITWMPRQLWLMGGAD | 0.507 ± 0.6 |
| ASLHHKSWTDHADTMTPPRT | inactive |
